Assay results reported in US20210269480A1 (published 2021).
Where two headings read alike, the source gives them in different places. *1 amine or outer side, *2 acyl side, *3 side chain or, on linkers, in order; H or OH if unused. Bridges are numbered along the chain shown (N, C = ends). Primed or numbered codes have the meaning given here. Where no end group is shown, it is not given here. [ ]: non-standard residue; d: D form. TATA = O=C(CC[*:1])N1CN(C(=O)CC[*:2])CN(C(=O)CC[*:3])C1; 1Nal = N[C@@H](Cc1cccc2ccccc12)C(=O)O; PABC = O=C(OCc1ccc(N[*:1])cc1)[*:2]; Glutaryl = O=C(CCCC(=O)[*:2])[*:1]; Cya = N[C@@H](CS(=O)(=O)O)C(=O)O; Hyp = O=C(O)[C@@H]1C[C@@H](O)CN1; dCya = N[C@H](CS(=O)(=O)O)C(=O)O; hArg = N=C(N)NCCCC[C@H](N)C(=O)O; Cit = NC(=O)NCCC[C@H](N)C(=O)O; MMAE = monomethyl auristatin E; PABC′ = p-aminobenzylcarbamate; βAla = NCCC(=O)O; Sar = CNCC(=O)O

T1: human Nectin-4 (human, UniProt Q96NY8 32-349)
T1 construct: a Gly32-Ser349 FLAG construct is described only under the SPR assay; also called PVRL4
T1 sequence (looked up): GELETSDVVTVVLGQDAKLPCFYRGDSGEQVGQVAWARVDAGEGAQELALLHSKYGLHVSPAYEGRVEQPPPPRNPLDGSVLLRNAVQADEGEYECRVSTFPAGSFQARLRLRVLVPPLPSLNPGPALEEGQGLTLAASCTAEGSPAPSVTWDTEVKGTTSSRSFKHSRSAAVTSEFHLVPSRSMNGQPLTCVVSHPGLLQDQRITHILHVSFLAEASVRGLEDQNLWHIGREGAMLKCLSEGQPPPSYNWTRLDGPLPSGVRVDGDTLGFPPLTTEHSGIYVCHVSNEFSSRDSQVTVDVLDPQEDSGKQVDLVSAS

T2: Human Nectin-4 (residues Gly32-Ser349) with C-terminal FLAG tag, biotinylated (human, UniProt Q96NY8 32-349, randomly biotinylated with EZ-Link Sulfo-NHS-LC-LC-Biotin)
T2 construct: range 32-349; Captured through biotin on a streptavidin CM5 chip in the SPR assay; also called PVRL4; not shown: C-terminal FLAG tag
T2 sequence (looked up): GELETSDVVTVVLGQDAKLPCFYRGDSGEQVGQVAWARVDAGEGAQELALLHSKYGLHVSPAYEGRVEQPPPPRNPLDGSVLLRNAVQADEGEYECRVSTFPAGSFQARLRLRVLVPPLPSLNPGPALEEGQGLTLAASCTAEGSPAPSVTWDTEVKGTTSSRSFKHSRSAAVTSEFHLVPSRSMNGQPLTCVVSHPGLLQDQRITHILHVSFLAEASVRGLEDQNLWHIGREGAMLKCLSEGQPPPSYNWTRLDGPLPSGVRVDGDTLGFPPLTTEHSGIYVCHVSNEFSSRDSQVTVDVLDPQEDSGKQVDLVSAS

B1: BCY462 (peptide)
peptide: VDWCAPLDDYWCDRICA
modifications: linker 4-12-16 via TATA; not fully specified
notes: Direct FP used peptides with a fluorescent tag; also called 80-10-12-T01
B2: BCY472 (peptide)
peptide: ACVTTSYDCWVRLGQCA
modifications: linker 2-9-16 via TATA; not fully specified
notes: Direct FP used peptides with a fluorescent tag; also called 80-11-01
B3: BCY7683 (peptide)
peptide: {MMAE-PABC-Cit-Val-Glutaryl-βAla}-[Sar][Sar][Sar][Sar][Sar]CPF[dD]CM[hArg]NWSWPIWC
modifications: linker 6-10-20 via TATA
notes: also called MMAE-PABC-Cit-Val-Glutaryl-BCY7556
B4: BCY471 (peptide)
peptide: ACVTTSYDCFLHLLGCA
modifications: linker 2-9-16 via TATA; not fully specified
notes: Direct FP used peptides with a fluorescent tag; also called 80-11-00
B5: BCY488 (peptide)
peptide: ACWPLDSYWCARICA
modifications: linker 2-10-14 via TATA; not fully specified
notes: Direct FP used peptides with a fluorescent tag; also called 80-10-00
B6: BCY3406 (peptide)
peptide: ACVTTSYDCWVTLGHCSRF
modifications: linker 2-9-16 via TATA; not fully specified
notes: Direct FP used peptides with a fluorescent tag; also called 80-11-08-T01
B7: BCY8253 (peptide)
peptide: {MMAE-PABC′-Cit-Val-Glutaryl-βAla}-[Sar][Sar][Sar][Sar][Sar][Sar][Sar][Sar][Sar][Sar]CP[1Nal][dR]CL[hArg]HWSTP[Hyp]WC
modifications: linker 11-15-25 via TATA
notes: also called MMAE-PABC-Cit-Val-Glutaryl-BCY8231
B8: BCY8254 (peptide)
peptide: {MMAE-PABC′-Cit-Val-Glutaryl-βAla}-[Sar][Sar][Sar][Sar][Sar][Sar][Sar][Sar][Sar][Sar]CP[1Nal][dR]CM[hArg]NWSTP[Hyp]WC
modifications: linker 11-15-25 via TATA
notes: also called MMAE-PABC-Cit-Val-Glutaryl-BCY8232

Assays:
[1] = molecular target: T1, human Nectin-4; assay: FP direct binding, fluorescent peptide
Procedure: Affinity of the peptides of the invention for human Nectin-4 (Ki) was determined using a fluorescence polarisation assay, in accordance with the methods disclosed in WO 2016/067035. […] Measurements were conducted on a BMG PHERAstar FS equipped with an “FP 485 520 520” optic module which excites at 485 nm and detects parallel and perpendicular emission at 520 nm. The PHERAstar FS was set at 25° C. with 200 flashes per well and a positioning delay of 0.1 second, with each well measured at 5 to 10 minute intervals for 60 minutes. […] Data was analysed using Systat Sigmaplot version 12.0. mP values were fit to a user defined quadratic equation to generate a Kd value: f=ymin+(ymax−ymin)/Lig*((x+Lig+Kd)/2-sqrt((((x+Lig+Kd)/2)\hat{ }2)-(Lig*x))).

[2] = molecular target: T2, Human Nectin-4 (residues Gly32-Ser349) …; assay: SPR (Biacore), biotinylated human Nectin-4 on streptavidin chip
[3] = molecular target: T2, Human Nectin-4 (residues Gly32-Ser349) …; assay: as above; remark: listed apart in the source
[4] = molecular target: T1, human Nectin-4; assay: FP competition, tracer SEQ ID NO 217
Procedure: Peptides were diluted to an appropriate concentration in assay buffer as described in the direct binding assay with a maximum of 5% DMSO, then serially diluted 1 in 2. […] Measurements were conducted as for the direct binding assay, however the gain was determined prior to the first measurement. Data analysis was in Systat Sigmaplot version 12.0 where the mP values were fit to a user defined cubic equation to generate a Ki value: […]

Binder | Ki [1] [nM] | Kd [2] [nM] | also measured
B1 | 269 |  | 
B2 | 502 |  | 
{Ac-βAla}-[Sar][Sar][Sar][Sar][Sar][Sar][Sar][Sar][Sar][Sar]CP[1Nal][dD]CM[Cya]DWSTP[Hyp]WC (linker 11-15-25 via TATA, Bicyclic peptide cyclised with TATA) [BCY8277] |  | 5.99 | 
Ac-CP[1Nal][dR]CM[Hyp]DWSTP[Hyp]WC (linker 1-5-15 via TATA, Bicyclic peptide cyclised with TATA) [BCY8194] |  | 1.9 | 
{Ac-βAla}-[Sar][Sar][Sar][Sar][Sar][Sar][Sar][Sar][Sar][Sar]CP[1Nal][dCya]CM[Cya]DWSTP[Hyp]WC (linker 11-15-25 via TATA, Bicyclic peptide cyclised with TATA) [BCY8279] |  | 3.31 | 
{Ac-βAla}-[Sar][Sar][Sar][Sar][Sar][Sar][Sar][Sar][Sar][Sar]CP[1Nal][dCya]CM[hArg]DWSTP[Hyp]WC (linker 11-15-25 via TATA, Bicyclic peptide cyclised with TATA) [BCY8276] |  | 0.86 | 
ACPFGCMKNWSWPIWCA (linker 2-6-16 via TATA; not fully specified (N-terminus), also called FI-A-(SQ ID NO: 1)-A) [80-09-02-N006] | 5 |  | 
carboxyfluorescein-CPF[dD]CM[hArg]NWSTPIWC (linker 1-5-15 via TATA) [BCY8208] | 745 |  | 
B3 |  |  | Kd [3]: 27.1 nM
B4 | 888 |  | 
B5 | 208 |  | 
QKWCAPLSDYWCNRICA (linker 4-12-16 via TATA; not fully specified, also called 80-10-13-T01) [BCY3400] | 72 |  | Ki [4]: 47 nM
B6 | 30 |  | 
Ac-CP[1Nal][dR]CM[hArg]DWSTPIWC (linker 1-5-15 via TATA, Bicyclic peptide cyclised with TATA) [BCY8215] |  | 1.62 | 
B7 |  |  | Kd [3]: 6.22 nM
B8 |  |  | Kd [3]: 4.11 nM
Ac-CP[1Nal][dR]CMPDWSTP[Hyp]WC (linker 1-5-15 via TATA, Bicyclic peptide cyclised with TATA) [BCY8193] |  | 1.3 | 
